Patent US11618906B2, “Hydroxylation techniques” (HYPHA DISCOVERY LTD., priority 2018, dated 2023)

Assays:
Format in all cases: biochemical
[1] = Metabolism of buparvaquone by P450 aluC09 and mutants; settings: percent of substrate being converted; 0.125 mg/ml, 27° C., 16-20 hours; [CYP] per enzyme as in Table 8
Description: (§1) Lyophilised material of mutants of CYP450aluC09, ferredoxinaluF03 and ferredoxin reductaseSCF15A was made as described in examples 3 and 4 and suspended in water (0.5 mL per vial) and biocatalysis was performed at 27° C. in the following conditions: 50 mM potassium phosphate pH 7.4, 5 mM MgCl2, 0.125 mg/ml substrate compound such as diclofenac (Sigma-Aldrich, UK), Aceclofenac (Tokyo Chemical Industry UK Ltd, UK), Indomethacin (Sigma-Aldrich, UK), Flufenamic acid (Sigma-Aldrich, UK), Napropamide (Sigma-Aldrich, UK), celecoxib (LC Laboratories, USA), valsartan (Tokyo Chemical Industry UK Ltd, UK), ruxolitinib (LC Laboratories, USA), 4-pyrrolidylacetophenone (Sigma-Aldrich, UK), tofacitinib (LC Laboratories, USA), bosentan (CarboSynth Ltd, UK), buparvaquone (MedChemtronica, Sweden), BIRB796 (Stratech Scientific Limited, UK), epothilone B (LC Laboratories, USA), ritonavir (Tokyo Chemical Industry UK Ltd, UK) or tivantinib (MedChemtronica, Sweden), P450AluC09 (concentration as in Table 8), 5 mM G6P, 1 mM NADP, 2 UN/ml G6PDH in a final volume of 100 μL. After 16-20 hours at 200 rpm (5 cm orbital shaker, Kuhner AG, Switzerland), reactions were extracted with an equal volume of acetonitrile, centrifuged to remove precipitated proteins and conversion assessed by UPLC-MS analysis.
(§2) However, of particular note when considering P450 concentration are the results for mutants M12, M20 and M34, as well as the deleterious impact on the range of substrate utility in mutants M39 and M40.

[2] = Metabolism of tivantinib by P450 aluC09 and mutants; settings: percent of substrate being converted; 0.125 mg/ml, 27° C., 16-20 hours; [CYP] per enzyme as in Table 8
Description: as §1, §2

[3] = Hydroxylation of diclofenac catalysed by cytochrome P450 aluC09 and mutants (UPLC-PDA-MS)
Description: as §1
(§3) UPLC data was obtained as follows:
(§4) Column: Acquity UPLC BEH Shield RP18 1.7 μm 2.1 mm i.d. 50 mm length
(§5) Solvents: H2O, B: Acetonitrile, both with 0.1% Formic acid
(§6) Detector: Waters Acquity UPLC PDA (UV-Vis detection) and Waters Acquity UPLC QDA (MS)
Illustrative results for the hydroxylation of diclofenac by CYP450aluC09 and selected T291x mutants are summarised below in Table 3 with representative chromatograms resented in FIG. 3a-c; retention times: diclofenac 1.85-1.88 minutes, 5-hydroxydiclofenac 1.60-1.63 minutes, 4′-hydroxydiclofenac 1.65-1.68 minutes, 4′,5-dihydroxydiclofenac 1.40-1.42 minutes. The chromatographic retention times and mass spectra coincided with those of authentic samples.

[4] = Hydroxylation of aceclofenac catalysed by cytochrome P450 aluC09 and mutants
Description: as §1, §3, §4, §5, §6
Chromatograms are provided in FIGS. 5a-c; aceclofenac elutes at 1.80 minutes, hydroxy-aceclofenac acid 1 elutes at 1.64 minutes, hydroxy-aceclofenac acid 2 elutes at 1.60 minutes and dihydroxy-aceclofenac elutes at 1.42 minutes.

[5] = Metabolism of celecoxib by P450 aluC09 and mutants; settings: percent of substrate being converted; 0.125 mg/ml, 27° C., 16-20 hours; [CYP] per enzyme as in Table 8
Description: as §1, §2

[6] = Metabolism of ritonavir by P450 aluC09 and mutants; settings: percent of substrate being converted; 0.125 mg/ml, 27° C., 16-20 hours; [CYP] per enzyme as in Table 8
Description: as §1, §2

[7] = Hydroxylation / de-N-ethylation of napropamide catalysed by cytochrome P450 aluC09 and mutants
Description: as §1, §3, §4, §5, §6
Napropamide elutes at 1.76 minutes, unidentified metabolite (−2 Da) elutes at 1.90 minutes, desethyl-napropamide elutes at 1.62 minutes, hydroxy-napropamide 1 elutes at 1.53 minutes and hydroxy-napropamide 2 elutes at 1.52 minutes and the desethyl-hydroxy-napropamide product elutes at 1.41 minutes.

[8] = Metabolism of ruxolitinib by P450 aluC09 and mutants; settings: percent of substrate being converted; 0.125 mg/ml, 27° C., 16-20 hours; [CYP] per enzyme as in Table 8
Description: as §1, §2

[9] = Metabolism of valsartan by P450 aluC09 and mutants; settings: percent of substrate being converted; 0.125 mg/ml, 27° C., 16-20 hours; [CYP] per enzyme as in Table 8
Description: as §1, §2

[10] = O-demethylation of indomethacin catalysed by cytochrome P450 aluC09 and mutants; settings: % by UV peak area at 275 nm; 0.125 mg/ml substrate, 27° C., 16-20 hours
Description: as §1, §3, §4, §5, §6

[11] = Metabolism of tofacitinib by P450 aluC09 and mutants; settings: percent of substrate being converted; 0.125 mg/ml, 27° C., 16-20 hours; [CYP] per enzyme as in Table 8
Description: as §1, §2

[12] = Hydroxylation of flufenamic acid catalysed by cytochrome P450 aluC09 and mutants
Description: as §1, §3, §4, §5, §6
Flufenamic acid elutes at 1.93 minutes, hydroxy-flufenamic acid 1 elutes at 1.68 minutes and hydroxy-flufenamic acid 2 elutes at 1.65 minutes.

[13] = Metabolism of 4-pyrrolidylacetophenone by P450 aluC09 and mutants; settings: percent of substrate being converted; 0.125 mg/ml, 27° C., 16-20 hours; [CYP] per enzyme as in Table 8
Description: as §1, §2

[14] = Metabolism of bosentan by P450 aluC09 and mutants; settings: percent of substrate being converted; 0.125 mg/ml, 27° C., 16-20 hours; [CYP] per enzyme as in Table 8
Description: as §1, §2

[15] = Metabolism of epothilone B by P450 aluC09 and mutants; settings: percent of substrate being converted; 0.125 mg/ml, 27° C., 16-20 hours; [CYP] per enzyme as in Table 8
Description: as §1, §2

[16] = % by UV peak area at 275 nm, 0.125 mg/ml substrate, 27° C., 16-20 hours

B1: aluC09M11: cytochrome P450 aluC09 mutant T291D; amino acid sequence SEQ ID NO: 8 (protein, listed as Amycolatopsis lurida)
chain: MTDVEETTATLPLARKCPFSPPPEYERLRRESPVSRVGLPSGQTAWALTRLEDIREMLSSPHFSSDRQSPSFPLMVARQIRREDKPFRPSLIAMDPPEHSRARRDVVGEFTVKRMKALQPRIQQIVDEHLDALLAGPKPADLVQALSLPVPSLVICELLGVPYSDHEFFQSCSSRMLSREVTAEERMTAFEQLENYLDELVTKKEANATEDDLLGRQILKQRETGEADHGELVGLAFLLLIAGHETTANMISLGTVTLLENPDQLAKIKADPGKTLAAIEELLRVFTIAEDATSRFATADVEIGGTLIRAGEGVVGLSNAGNHDPDGFENPDTFDIERGARHHVAFGFGVHQCLGQNLARLELQIVFDTLFRRVPGLRIAVPVDELPFKHDSTIYGLHALPVTW
% conversions (avg) Buparvaquone [1]: 15.8% | % conversions (avg) Tivantinib [2]: 34.2% | 4′,5-dihydroxy-diclofenac 1.38 mins [3, 16]: 2.3% | 4′-hydroxy-diclofenac (1) 1.62 mins [3, 16]: 25.3% | 5-hydroxy-diclofenac (2) 1.58 mins [3, 16]: 25.1% | Diclofenac (Substrate) 1.81 mins [3, 16]: 48.3% | Hydroxylated Ratio hydroxy 1:hydroxy 2 ([3]; diclofenac, ratio of UV peak areas at 275nm): 1.0 | Aceclofenac (Substrate) (1.80 mins) [4, 16]: 17.5% | Dihydroxy-Aceclofenac (1.42 mins) [4, 16]: 35.2% | Hydroxy-Aceclofenac (1) (1.64 min) [4, 16]: 6.3% | Hydroxy-Aceclofenac (2) (1.60 min) [4, 16]: 41.0% | Hydroxylated Ratio 2:1 ([4]; aceclofenac, ratio of UV peak areas at 275 nm): 6.5 | % conversions (avg) Celecoxib [5]: 3.2% | % conversions (avg) Ritonavir [6]: 57.3% | Desethyl Napropamide (1.62 min) [7, 16]: 36.6% | Desethyl-hydroxy-Napropamide (1.41 min) [7, 16]: 8.7% | Hydroxy-Napropamide (1) (1.53 min) [7, 16]: 1.5% | Hydroxy-Napropamide (2), (1.52 min) [7, 16]: 3.1% | M-2Da (unidentified) (1.89 min) [7, 16]: 6.7% | Napropamide (substrate) [7, 16]: 47.6% | Hydroxylated Ratio 2:1 ([7]; napropamide, ratio of UV peak areas): 2.1 | % conversions (avg) Ruxolitinib [8]: 35.7% | % conversions (avg) Valsartan [9]: 26% | Indomethacin (1.74 mins) [10]: 92.6% | O-demethyl-Indomethacin (1.52 mins) [10]: 7.4% | % conversions (avg) Tofacitinib [11]: 1.4% | Flufenamic Acid (Substrate) 1.93 mins [12, 16]: 94.7% | Hydroxy-Flufenamic Acid (1) 1.69 mins [12, 16]: 3.4% | Hydroxy-Flufenamic Acid (2) 1.65 mins [12, 16]: 1.9% | Hydroxylated Ratio 1:2 ([12]; flufenamic acid, ratio of UV peak areas at 275 nm): 1.8 | % conversions (avg) 4-pyrrolidylacetophenone [13]: 21.4% | % conversions (avg) Bosentan [14]: 100% | % conversions (avg) Epothilone B [15]: 8.5%
